Test results as given in patent US20040156847A1.

Molecular target: human CD30 expressed on human peripheral blood eosinophils (human) (UniProt P28908)
Assay: cell-based or functional assay

Chain of UniProt P28908 (P28908 19-595): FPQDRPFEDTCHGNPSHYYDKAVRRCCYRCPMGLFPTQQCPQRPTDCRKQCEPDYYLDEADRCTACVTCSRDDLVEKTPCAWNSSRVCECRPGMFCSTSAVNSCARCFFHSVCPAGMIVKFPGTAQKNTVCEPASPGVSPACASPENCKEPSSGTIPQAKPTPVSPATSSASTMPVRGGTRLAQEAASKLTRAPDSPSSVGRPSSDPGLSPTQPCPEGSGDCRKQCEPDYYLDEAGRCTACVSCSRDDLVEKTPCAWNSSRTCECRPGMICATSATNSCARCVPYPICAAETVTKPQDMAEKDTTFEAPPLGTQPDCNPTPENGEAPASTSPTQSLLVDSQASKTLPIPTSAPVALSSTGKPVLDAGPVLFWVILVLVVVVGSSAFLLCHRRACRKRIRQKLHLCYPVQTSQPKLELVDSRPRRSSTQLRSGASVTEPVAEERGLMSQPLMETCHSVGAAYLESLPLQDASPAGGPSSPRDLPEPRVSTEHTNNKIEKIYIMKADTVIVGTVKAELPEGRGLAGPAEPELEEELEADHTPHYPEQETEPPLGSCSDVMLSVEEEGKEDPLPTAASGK

apoptosis of human peripheral blood eosinophils (FITC-Annexin V, flow cytometry), antibody immobilized at 0.01 µg/ml, 4 hours [%] | apoptosis of human peripheral blood eosinophils (FITC-Annexin V, flow cytometry), antibody immobilized at 0.1 µg/ml, 4 hours [%] | apoptosis of human peripheral blood eosinophils (FITC-Annexin V, flow cytometry), antibody immobilized at 1 µg/ml, 4 hours [%] | apoptosis of human peripheral blood eosinophils (FITC-Annexin V, flow cytometry), antibody immobilized at 10 µg/ml, 4 hours [%] | apoptosis of human peripheral blood eosinophils after 1 hour, antibody immobilized at 10 µg/ml [%] | apoptosis of human peripheral blood eosinophils after 1 hour, antibody immobilized at 10 µg/ml (comparison with anti-Fas CH-11) [%] | apoptosis of human peripheral blood eosinophils after 4 hours, antibody immobilized at 10 µg/ml [%] | apoptosis of human peripheral blood eosinophils after 4 hours, antibody immobilized at 10 µg/ml (comparison with anti-Fas CH-11) [%] | apoptosis of human peripheral blood eosinophils after 4 hours, antibody immobilized on polystyrene microbeads [%] | apoptosis of human peripheral blood eosinophils after 4 hours, ligand immobilized at 10 µg/ml [%] | apoptosis of human peripheral blood eosinophils after 4 hours, ligand immobilized at 100 µg/ml [%] | Substance
7.8 | 11.4 | 44.8 | 71.9 | 50 | 50 | 70 | 70 | 44 | – | – | mouse anti-human CD30 monoclonal antibody Ber-H8 (PharMingen, San Diego, Calif.)
– | – | – | – | – | – | 30 | – | – | – | – | anti-mouse CD30 monoclonal antibody YMSM636.4.10 (Serotec Ltd, Oxford UK)
– | – | 16.3 | 78.8 | 50 | 50 | 70 | 70 | 27.9 | – | – | mouse anti-human CD30 monoclonal antibody HRS-4 (Immunotech, Marseilles, France)
– | – | – | – | – | – | – | – | – | 28 | 35 | recombinant mouse CD30 ligand (R&D Systems Inc. Minneapolis, USA) (from UniProt P32972 68-239)
